The experiment addresses T1, LILRB3-hFc recombinant protein (human, UniProt O75022 24-443).
T1 construct: extracellular domain; also called LILRB-Fc; the extracellular LILRB3 domain with a human Fc tag; not shown: human Fc tag
As to the kind of experiment: SPR (Biacore T100), LILRB3-hFc amine-coupled on CM5 chip, mAb as analyte, 1:1 model. As for the experimental part:
SPR was performed with the Biacore T100 (GE Healthcare, UK) as per the manufacturer's instructions. LILRB3-hFc recombinant protein (the extracellular LILRB3 domain with a human Fc tag) was used as the ligand and immobilized by amine coupling onto a series S sensor chip (CM5). Various LILRB3 mAb were used as “analytes” and flowed across the chip, and SPR measured.
(Surface plasmon resonance follows binding to a sensor surface in real time, without labels.)

T1 sequence (O75022 24-443): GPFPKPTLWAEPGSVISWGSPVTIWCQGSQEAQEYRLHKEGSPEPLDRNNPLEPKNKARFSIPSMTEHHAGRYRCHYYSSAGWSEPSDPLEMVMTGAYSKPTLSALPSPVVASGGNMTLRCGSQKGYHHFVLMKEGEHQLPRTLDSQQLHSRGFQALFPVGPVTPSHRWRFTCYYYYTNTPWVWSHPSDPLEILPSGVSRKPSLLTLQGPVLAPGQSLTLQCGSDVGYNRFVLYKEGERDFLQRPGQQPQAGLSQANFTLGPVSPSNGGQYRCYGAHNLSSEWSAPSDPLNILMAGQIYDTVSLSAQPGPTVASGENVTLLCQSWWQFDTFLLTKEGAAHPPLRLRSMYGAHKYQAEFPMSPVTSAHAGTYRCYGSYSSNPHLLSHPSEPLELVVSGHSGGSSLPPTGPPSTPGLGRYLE

B1: LILRB3 mAb clone A16 (antibody, human IgG1, V domains shown)
VH: EVQLLESGGGLVQPGGSLRLSCAASGFTFSSYWMSWVRQAPGKGLEWVSRINTHGTNIDYADSVKGRFTISRDNSKNTLYLQMNSLRAEDTAVYYCVGVAGTGWFDPWGQGTLVTVSS
VL: QSVLTQPPSASGTPGQRVTISCTGSSSNIGAGYDVHWYQQLPGTAPKLLIYGNNNRPSGVPDRFSGSKSGTSASLAISGLRSEDEADYYCQSYDTSLSGSVFGGGTKLTVLG
notes: Fully human IgG1, full-length IgG; only variable domains tied to the clone; APC-labelled for staining of primary cells; deglycosylated in the T cell assay
Usually Kd stands for the concentration at which binding is half-saturated. Consider B1, for which the Kd stood at 0.816 nM.

The record behind these values is patent US20230070339A1 (UNIVERSITY OF SOUTHAMPTON, published 2023).
